Tests used:
[1] = molecular target: T1, chimeric DR-IE (human-mouse chimeric MHC class II molecule) (human; murine); experiment: cell-based or functional assay
[2] = molecular target: T2, HLA-DR on PRIESS cells (DRA*0101/DRB1*0401) (human, UniProt P01903 26-254; P01911 30-266); experiment: cell-based or functional assay
T2 MHC II alpha: not shown
T2 MHC II beta: not shown

HLA-DR on LG-2 cells [3] = molecular target: HLA-DR on LG-2 cells (human); experiment: cell-based or functional assay
[4] = molecular target: T2, HLA-DR on PRIESS cells …; experiment: cell-based or functional assay
HLA-DR on LG-2 cells [5] = molecular target: HLA-DR on LG-2 cells (human); experiment: cell-based or functional assay; remark: listed apart in the source
[6] = molecular target: T1, chimeric DR-IE (human-mouse chimeric …); experiment: cell-based or functional assay; remark: listed apart in the source
[7] = molecular target: T2, HLA-DR on PRIESS cells …; experiment: cell-based or functional assay
[8] = molecular target: T3, human MHC class II DR protein (DRA*0101/DRB1*0401), purified (human, UniProt P01903 26-254; P01911 30-266, limits assumed); experiment: not stated (Z. A. Nagy, unpublished)
T3 construct: mature; Detergent-solubilised protein purified from PRIESS cell lysate on an LB3.1 column; also called HLA-DR protein
T3 MHC II alpha: not shown
T3 MHC II beta: not shown

B1: MS-GPC-8-27-41 (IgG4 form) (antibody, V domains shown)
VH: QVELKESGPALVKPTQTLTLTCTFSGFSLSTSGVGVGWIRQPPGKALEWLALIDWDDDKYYSTSLKTRLTISKDTSKNQVVLTMTNMDPVDTATYYCARSPRYRGAFDYWGQGTLVTVSS
VL: DIVLTQPPSVSGAPGQRVTISCSGSESNIGNNYVQWYQQLPGTAPKLLIYDNNQRPSGVPDRFSGSKSGTSASLAITGLQSEDEADYYCQSYDMNVHVFGGGTKLTVLG
IC50 value for inhibition of T cell proliferation (lymph node cells of chimeric 0401-IE transgenic mice, ovalbumin) [1]: 20 nM | % Killing by mAb; PRIESS (DR 4,4); 50 nM, 4 h [2]: 88% | % Killing by mAb; LG-2 (DR 1,1); 50 nM, 4 h (HLA-DR on LG-2 cells [3]): 87% | EC50 of cell killing for bivalent agent; PRIESS; IgG4 [4]: 1.1 nM | EC50 of cell killing for bivalent agent; LG2; IgG4 (HLA-DR on LG-2 cells [5]): 1.23 nM | IC50, IL-2 secretion of T-Hyb 1 cells stimulated by 0401-IE transgenic APC; IgG [6]: 0.28 nM | Maximum inhibition(%), IL-2 secretion of T-Hyb 1 cells; IgG [6]: 100%

B2: MS-GPC-8-Fab (Fab, V domains shown)
VH: QVQLKESGPALVKPTQTLTLTCTFSGFSLSTSGVGVGWIRQPPGKALEWLALIDWDDDKYYSTSLKTRLTISKDTSKNQVVLTMTNMDPVDTATYYCARSPRYRGAFDYWGQGTLVTVSS
VL: DIVLTQPPSVSGAPGQRVTISCSGSSSNIGSNYVSWYQQLPGTAPKLLIYDNNQRPSGVPDRFSGSKSGTSASLAITGLQSEDEADYYCQSYDMPQAVFGGGTKLTVLG
maximum killing capacity against PRIESS cells, cross-linked bivalent fragment [7]: 84% | EC50 of cell killing for bivalent agent; PRIESS; Fab cross-linked with anti-FLAG M2 [4]: 31 nM | IC50, IL-2 secretion of T-Hyb 1 cells stimulated by 0401-IE transgenic APC; Fab [6]: 110 nM (Fab concentration/2) | Maximum inhibition(%), IL-2 secretion of T-Hyb 1 cells; Fab [6]: 100%

B3: L243 (antibody, V domains shown)
VH: QIQLVQSGPELKKPGETVKISCKASGFTFTNYGMNWVKQAPGKGLKWMGWINTYTREPTYADDFKGRFAFSLETSASTAYLQINNLKNEDTAKYFCARDITAVVPTGFDYWGQGTTLTVSS
VL: DIQMTQSPASLSVSVGETVTITCRASENIYSNLAWYRQKQGKSPQLLVFAASNLADGVPSRFSGSGSGTQYSLKINSLQSEDFGDYYCQHFWTTPWAFGGGTNLEIK
Kd [8]: 10 nM
